This is an account of results in PMC2965215.

The data set concerns the target T1, ORF904 primase domain Y352A (Sulfolobus islandicus plasmid pRN1, UniProt Q54324 40-370, Y352A).
T1 sequence: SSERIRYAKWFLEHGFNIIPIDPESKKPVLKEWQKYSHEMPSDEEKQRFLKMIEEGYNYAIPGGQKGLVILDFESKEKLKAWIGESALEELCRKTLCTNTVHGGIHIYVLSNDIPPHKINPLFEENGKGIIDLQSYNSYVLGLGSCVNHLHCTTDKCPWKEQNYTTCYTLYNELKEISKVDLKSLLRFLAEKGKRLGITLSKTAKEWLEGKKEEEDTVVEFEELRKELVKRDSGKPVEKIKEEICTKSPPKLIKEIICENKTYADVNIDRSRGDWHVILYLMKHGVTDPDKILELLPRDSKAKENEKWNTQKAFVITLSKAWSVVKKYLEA
Nature of the data set: fluorescence anisotropy.

The molecule TCTTCTGTGCACTCTTC (ssDNA) [templatefluo] had a Kd of 1.03 ± 0.08 µM.

By Kd is commonly meant the constant that tells how readily two partners part at equilibrium. High values mean a looser complex, low ones a tighter complex.
